Measured values as given in paper PMC6679193, “Unraveling the Impact of Cysteine-to-Serine Mutations on the Structural and Functional Properties of Cu(I)-Binding Proteins” (International Journal of Molecular Sciences, 2019).

B2: MBD3-4_C268S_C271S_C370S_C373S mutant of ATP7B (SER-MBD3-4) (domain or fragment, human)
chain: SANQNFNNSETLGHQGSHVVTLQLRIDGMHSKSSVLNIEENIGQLLGVQSIQVSLENKTAQVKYDPSCTSPVALQRAIEALPPGNFKVSLPDGAEGSGTDHRSSSSHSPGSPPRNQVQGTCSTTLIAIAGMTSASSVHSIEGMISQLEGVQQISVSLAEGTATVLYNPSVISPEELRAAIEDMGFEASVVSESCSTNPLGNH
notes: The methods describe only the wild-type construct; also called MBD3-4(Ser); source: expressed and purified as WT-MBD3-4 (E. coli Origami 2, chitin beads, intein self-cleavage)

Legend:
[1] = target: B2; test: cross-linking; 0.1% glutaraldehyde, RT, 30 min or overnight, phosphate buffer (25 mM Na2HPO4, 150 mM NaCl, pH 8), read by SDS-PAGE; MBD3-4 at 50 uM or increasing concentrations, Atox1 at 50 uM; with or without Cu(I) at different ratios; conditions: both partners purified
[2] = target: T1, ATP7B metal binding domains 3-4, wild type (WT-MBD3-4) (human, UniProt P35670 238-439); test: as above; conditions: both partners purified
T1 construct: The printed PCR primers encode a start at RPLSSAN and an end at TNPLGNH followed by a stop codon; Residues of the vector may remain after intein cleavage; also called ATP7B MBD3-4; ATP7B-MBD34; source: E. coli Origami 2, purified (chitin beads, intein self-cleavage with DTT)
T1 sequence: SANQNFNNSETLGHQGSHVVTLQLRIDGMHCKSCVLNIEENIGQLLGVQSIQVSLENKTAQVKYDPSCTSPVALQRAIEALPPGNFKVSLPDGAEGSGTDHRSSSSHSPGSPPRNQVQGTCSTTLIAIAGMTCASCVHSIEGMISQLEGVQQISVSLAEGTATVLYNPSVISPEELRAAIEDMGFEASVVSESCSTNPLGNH

[3] = target: the molecule itself; test: as above
[4] = target: the molecule itself; test: cross-linking; 0.6% glutaraldehyde, RT, 30 min, phosphate buffer (25 mM Na2HPO4, 150 mM NaCl, pH 8), CueR at 20 uM, with or without Cu(I) at a 1:3 ratio, read by SDS-PAGE

B1: Atox1 metallochaperone, wild type (WT-Atox1) (natural protein, human)
chain: MPKHEFSVDMTCGGCAEAVSRVLNKLGGVKYDIDLPNKKVCIESEHSMDTLLATLKKTGKTVSYLGLE
notes: Human Atox1 copper metallochaperone
- binding result [1]: binds
- binding result [2]: binds

Binder: B2
- binding result [3]: binds

B3: CueR metalloregulator of E. coli, wild type (WT-CueR) (natural protein, UniProt P0A9G4 1-135, looked up)
chain: MNISDVAKITGLTSKAIRFYEEKGLVTPPMRSENGYRTYTQQHLNELTLLRQARQVGFNLEESGELVNLFNDPQRHSADVKRRTLEKVAEIERHIEELQSMRDQLLALANACPGDDSADCPIIENLSGCCHHRAG
notes: No cleavage is described; source: E. coli BL21, purified (Ni-NTA agarose)
- stoichiometry N [4]: 2

B4: CueR_C112S (natural protein, E. coli, UniProt P0A9G4 1-135, looked up)
chain: MNISDVAKITGLTSKAIRFYEEKGLVTPPMRSENGYRTYTQQHLNELTLLRQARQVGFNLEESGELVNLFNDPQRHSADVKRRTLEKVAEIERHIEELQSMRDQLLALANASPGDDSADCPIIENLSGCCHHRAG
notes: E. coli CueR, same construct as m4, with C112S; source: E. coli BL21, purified (Ni-NTA agarose)
- binding result [4]: binds

B5: CueR_C120S (natural protein, E. coli, UniProt P0A9G4 1-135, looked up)
chain: MNISDVAKITGLTSKAIRFYEEKGLVTPPMRSENGYRTYTQQHLNELTLLRQARQVGFNLEESGELVNLFNDPQRHSADVKRRTLEKVAEIERHIEELQSMRDQLLALANACPGDDSADSPIIENLSGCCHHRAG
notes: E. coli CueR, same construct as m4, with C120S; source: E. coli BL21, purified (Ni-NTA agarose)
- binding result [4]: binds

B6: CueR_C112S_C120S (natural protein, E. coli, UniProt P0A9G4 1-135, looked up)
chain: MNISDVAKITGLTSKAIRFYEEKGLVTPPMRSENGYRTYTQQHLNELTLLRQARQVGFNLEESGELVNLFNDPQRHSADVKRRTLEKVAEIERHIEELQSMRDQLLALANASPGDDSADSPIIENLSGCCHHRAG
notes: E. coli CueR, same construct as m4, with C112S and C120S; source: E. coli BL21, purified (Ni-NTA agarose)
- binding result [4]: binds
